# Source: patent publication US20180362585A1 (Bicycle, published 2018)
# Numbered stars: 1 amine (or outer) side, 2 acyl side, 3 side chain; on linkers, the order of the positions; unused ones are H or OH. Bridge positions count the residues as written; N and C are the ends. Ends that are not written are not given here. TBMB = c1c(C[*:1])cc(C[*:3])cc1C[*:2]
# Target: T1, human plasma Kallikrein (human, UniProt P03952 20-638)
# T1 construct: also called hPK; human PK
# Test: phage binding assay
# Procedure: Library transformant colonies, or selection output colonies, were picked and grown as individual cultures in 2TY broth containing selective antibiotic. The picked colonies were DNA-sequenced using a QIAgen PyroMark Q96 DNA sequencer to reveal the amino-acid substitution present in each clone, and were assayed for human plasma Kallikrein binding as follows. The phage-containing supernatant was harvested from the culture and phage were cyclised with tris bromomethyl benzene (TBMB) based on the methods of Heinis et al (Nature Chemical Biology vol. 5 pp 502-507 (2009)). The purified phage from this process were assayed for binding to biotinylated human plasma Kallikrein using a homogeneous plate-based binding assay; assay read-out measured on a BMG Labtech Pherastar FS plate reader. The quantitative binding data from duplicate assay samples was averaged (mean) and expressed as signal:background. […] The assay data was correlated with the peptide sequences.
# Selections against human plasma Kallikrein were performed at a variety of stringencies (see Phage selections' in Methods above). All output sequences were identified and analysed for target binding (see ‘Randomisation of peptide domains—Assay of binding of individual clones’ in Methods above). Table 17 lists each unique sequence, its relative abundance in the selection output (frequency), and a rank number according to target binding strength.
# T1 sequence (P03952 20-638 limits assumed): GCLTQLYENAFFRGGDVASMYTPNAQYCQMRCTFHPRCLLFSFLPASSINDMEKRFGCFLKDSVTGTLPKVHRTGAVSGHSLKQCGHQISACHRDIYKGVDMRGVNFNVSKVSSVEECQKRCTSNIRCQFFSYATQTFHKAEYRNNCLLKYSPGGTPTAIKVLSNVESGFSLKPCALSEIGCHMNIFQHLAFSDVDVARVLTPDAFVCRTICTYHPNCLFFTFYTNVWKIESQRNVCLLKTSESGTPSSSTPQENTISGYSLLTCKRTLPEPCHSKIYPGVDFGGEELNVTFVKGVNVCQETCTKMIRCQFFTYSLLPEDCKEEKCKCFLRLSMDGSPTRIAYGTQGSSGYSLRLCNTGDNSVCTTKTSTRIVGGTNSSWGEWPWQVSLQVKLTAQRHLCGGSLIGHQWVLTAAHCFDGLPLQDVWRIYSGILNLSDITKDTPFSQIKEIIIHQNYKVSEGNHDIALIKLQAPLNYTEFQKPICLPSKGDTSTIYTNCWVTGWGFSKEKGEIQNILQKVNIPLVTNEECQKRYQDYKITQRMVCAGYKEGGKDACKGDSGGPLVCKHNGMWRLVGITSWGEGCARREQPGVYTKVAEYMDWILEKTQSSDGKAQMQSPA
row,Binder,RANK (Kallikrein binding)
1,"CSFPIRCTHQDLC (linker 1-7-13 via TBMB (inferred), on phage)",15
2,"CSFPFWCTHQDLC (linker 1-7-13 via TBMB (inferred), on phage)",34
3,"CSFPYRCTHQDLC (linker 1-7-13 via TBMB (inferred), on phage)",5
4,"CSFLYKCTHQDLC (linker 1-7-13 via TBMB (inferred), on phage)",29
5,"CSFPFKCTHQDLC (linker 1-7-13 via TBMB (inferred), on phage)",6
6,"CSFPYKCTHQDLC (linker 1-7-13 via TBMB (inferred), on phage)",22
7,"CRFPFKCTHQDLC (linker 1-7-13 via TBMB (inferred), on phage)",11
8,"CSFPWRCTHQDLC (linker 1-7-13 via TBMB (inferred), on phage)",23
9,"CSFMYKCTHQDLC (linker 1-7-13 via TBMB (inferred), on phage)",37

# Target: T1, human plasma Kallikrein
# Test: phage binding assay
# Remark: another data set of the same source
row,Binder,BINDING ASSAY SIGNAL
1,"CAWPARCMHDDLC (linker 1-7-13 via TBMB, on phage)",69
2,"CSWPARCTHAEMC (linker 1-7-13 via TBMB, on phage)",59
3,"CSWPARCVHQDMC (linker 1-7-13 via TBMB, on phage)",61
4,"CSWPARCTHTELC (linker 1-7-13 via TBMB, on phage)",69
5,"CSWPARCLHTELC (linker 1-7-13 via TBMB, on phage)",68
6,"CQWPARCMHQELC (linker 1-7-13 via TBMB (inferred), on phage)",73
7,"CTWPARCTHQAFC (linker 1-7-13 via TBMB, on phage)",59
8,"CDWPARCMHQEFC (linker 1-7-13 via TBMB, on phage)",63
9,"CTWPARCLHQDLC (linker 1-7-13 via TBMB, on phage)",73
10,"CAWPARCTHADLC (linker 1-7-13 via TBMB, on phage)",79
11,"CTWPARCTHTDLC (linker 1-7-13 via TBMB, on phage)",88
12,"CHWPARCTHQDLC (linker 1-7-13 via TBMB, on phage)",110
13,"CLWPARCTHADLC (linker 1-7-13 via TBMB, on phage)",74
14,"CAWPARCTHTHLC (linker 1-7-13 via TBMB, on phage)",66
15,"CMWPARCMHQDLC (linker 1-7-13 via TBMB (inferred), on phage)",79
16,"CRWPARCTHTDLC (linker 1-7-13 via TBMB (inferred), on phage)",59
17,"CAWPARCTHTDLC (linker 1-7-13 via TBMB, on phage)",92
18,"CSWPARCTHSDLC (linker 1-7-13 via TBMB, on phage)",59
19,"CTWPARCTHTDMC (linker 1-7-13 via TBMB, on phage)",67
20,"CEWPARCLHTDLC (linker 1-7-13 via TBMB, on phage)",60
21,"CNWPARCTHQDLC (linker 1-7-13 via TBMB (inferred), on phage)",116
22,"CAWPARCTHTDFC (linker 1-7-13 via TBMB, on phage)",80

row,Binder,BINDING ASSAY SIGNAL
1,"CPWPARCTHTDLC (linker 1-7-13 via TBMB (inferred), on phage)",70
2,"CAWPARCTHVDLC (linker 1-7-13 via TBMB, on phage)",82
3,"CVWPARCTHQDLC (linker 1-7-13 via TBMB, on phage)",71
4,"CRWPARCTHQDLC (linker 1-7-13 via TBMB (inferred), on phage)",73
5,"CHWPARCTHQELC (linker 1-7-13 via TBMB, on phage)",85
6,"CSWPARCTHADLC (linker 1-7-13 via TBMB, on phage)",100
7,"CSWPARCIHQDLC (linker 1-7-13 via TBMB, on phage)",68
8,"CPWPARCLHTDLC (linker 1-7-13 via TBMB (inferred), on phage)",58
9,"CSWPARCTHSHLC (linker 1-7-13 via TBMB, on phage)",72
10,"CAWPARCTHYDLC (linker 1-7-13 via TBMB, on phage)",70
11,"CLWPARCTHQDLC (linker 1-7-13 via TBMB, on phage)",90
12,"CPWPARCTHQDLC (linker 1-7-13 via TBMB (inferred), on phage)",107
13,"CQWPARCTHSDLC (linker 1-7-13 via TBMB (inferred), on phage)",74
14,"CPWPARCTHQNLC (linker 1-7-13 via TBMB (inferred), on phage)",69
15,"CHWPARCMHQDLC (linker 1-7-13 via TBMB, on phage)",71
16,"CTWPARCTHADLC (linker 1-7-13 via TBMB, on phage)",71
17,"CAWPARCLHQDWC (linker 1-7-13 via TBMB, on phage)",63
18,"CTWPARCLHQHMC (linker 1-7-13 via TBMB, on phage)",61
19,"CAWPARCLHADMC (linker 1-7-13 via TBMB, on phage)",66
20,"CAWPARCTHQTMC (linker 1-7-13 via TBMB, on phage)",61
21,"CQWPARCMHQDMC (linker 1-7-13 via TBMB (inferred), on phage)",75
